Laboratory results from US5827734.

Molecular target: murine MBP::ob fusion protein (+Gln), construct pCZR90 (mouse)

- Factor Xa cleavage of the MBP::ob fusion protein: 9%
Substance: Bovine Factor Xa (from UniProt P00743) (enzyme)
